The test concerns the target human citrullinated fibrinogen (hCitFbg) (human) (UniProt P02671). Kind of test: ELISA; Fbg or citrullinated Fbg coated (0.8 μg/mL in PBS, overnight 4 °C); recombinant SAA 10–2000 ng/mL added, 1 h at 37 °C; detected with anti-hSAA1; apparent Kd. On the technique in general: ELISA stands for enzyme-linked immunosorbent assay.

B1: recombinant human serum amyloid A1 (hSAA1) (natural protein)
chain: RSFFSFLGEAFDGARDMWRAYSDMREANYIGSDKYFHARGNYDAAKRGPGGAWAAEVITDARENIQRFFGHGAEDSLADQAANEWGRSGKDPNHFRPAGLPEKY
Turning to B1, the apparent Kd relative to hSAA1-hFbg was 0.5 fold.

Source of the values: paper PMC10449786.
